Data reported in patent US20090099029.

T1: Bovine, dephosphorylated, Myelin Basic Protein (MBP), P02687
T1 chain: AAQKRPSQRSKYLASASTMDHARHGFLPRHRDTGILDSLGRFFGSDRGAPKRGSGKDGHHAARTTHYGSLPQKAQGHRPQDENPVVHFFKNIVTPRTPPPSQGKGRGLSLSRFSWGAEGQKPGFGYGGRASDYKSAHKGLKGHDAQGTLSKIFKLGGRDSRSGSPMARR


Biological target: T1, Bovine, dephosphorylated, Myelin Basic …

| Protein | MBP Kinase Activity |
| --- | --- |
| FGFR3 (protein) RLRSPPKKGLGSPTVHKISRFPLKRQVSLESNASMSSNTPLVRIARLSSGEGPTLANVSELELPADPKWELSRARLTLGKPLGEGCFGQVVMAEAIGIDKDRAAKPVTVAVKMLKDDATDKDLSDLVSEMEMMKMIGKHKNIINLLGACTQGGPLYVLVEYAAKGNLREFLRARRPPGLDYSFDTCKPPEEQLTFKDLVSCAYQVARGMEYLASQKCIHRDLAARNVLVTEDNVMKIADFGLARDVHNLDYYKKTTNGRLPVKWMAPEALFDRVYTHQSDVWSFGVLLWEIFTLGGSPYPGIPVEELFKLLKEGHRMDKPANCTHDLYMIMRECWHAAPSQRPTFKQLVEDLDRVLTVTSTDEYLDLSAPFEQYSPGGQDTPSSSSSGDDSVFAHDLLPPAPPSSGGSRT | Strong |
| FGFR4 (protein) RGQALHGRHPRPPATVQKLSRFPLARQFSLESGSSGKSSSSLVRGVRLSSSGPALLAGLVSLDLPLDPLWEFPRDRLVLGKPLGEGCFGQVVRAEAFGMDPARPDQASTVAVKMLKDNASDKDLADLVSEMEVMKLIGRHKNIINLLGVCTQEGPLYVIVECAAKGNLREFLRARRPPGPDLSPDGPRSSEGPLSFPVLVSCAYQVARGMQYLESRKCIHRDLAARNVLVTEDNVMKIADFGLARGVHHIDYYKKTSNGRLPVKWMAPEALFDRVYTHQSDVWSFGILLWEIFTLGGSPYPGIPVEELFSLLREGHRMDRPPHCPPELYGLMRECWHAAPSQRPTFKQLVEALDKVLLAVSEEYLDLRLTFGPYSPSGGDASSTCSSSDSVFSHDPLPLGSSSFPFGSGVQT | Strong |
| FLT1(VEGFR1) (protein) RKMKRSSSEIKTDYLSIIMDPDEVPLDEQCERLPYDASKWEFARERLKLGKSLGRGAFGKVVQASAFGIKKSPTCRTVAVKMLKEGATASEYKALMTELKILTHIGHHLNVVNLLGACTKQGGPLMVIVEYCKYGNLSNYLKSKRDLFFLNKDAALHMEPKKEKMEPGLEQGKKPRLDSVTSSESFASSGFQEDKSLSDVEEEEDSDGFYKEPITMEDLISYSFQVARGMEFLSSRKCIHRDLAARNILLSENNVVKICDFGLARDIYKNPDYVRKGDTRLPLKWMAPESIFDKIYSTKSDVWSYGVLLWEIFSLGGSPYPGVQMDEDFCSRLREGMRMRAPEYSTPEIYQIMLDCWHRDPKERPRFAELVEKLGDLLQANVQQDGKDYIPINAILTGNSGFTYSTPAFSEDFFKESISAPKFNSGSSDDVRYVNAFKFMSLERIKTFEELLPNATSMFDDYQGDSSTLLASPMLKRFTWTDSKPKASLKIDLRVTSKSKESGLSDVSRPSFCHSSCGHVSEGKRRFTYDHAELERKIACCSPPPDYNSVVLYSTPPI | Strong |
| FLT3 (protein) HKYKKQFRYESQLQMVQVTGSSDNEYFYVDFREYEYDLKWEFPRENLEFGKVLGSGAFGKVMNATAYGISKTGVSIQVAVKMLKEKADSSEREALMSELKMMTQLGSHENIVNLLGACTLSGPIYLIFEYCCYGDLLNYLRSKREKFHRTWTEIFKEHNFSFYPTFQSHPNSSMPGSREVQIHPDSDQISGLHGNSFHSEDEIEYENQKRLEEEEDLNVLTFEDLLCFAYQVAKGMEFLEFKSCVHRDLAARNVLVTHGKVVKICDFGLARDIMSDSNYVVRGNARLPVKWMAPESLFEGIYTIKSDVWSYGILLWEIFSLGVNPYPGIPVDANFYKLIQNGFKMDQPFYATEEIYIIMQSCWAFDSRKRPSFPNLTSFLGCQLADAEEAMYQNVDGRVSECPHTYQNRRPFSREMDLGLLSPQAQVEDS | Strong |
| IGF1R (protein) RKRNNSRLGNGVLYASVNPEYFSAADVYVPDEWEVAREKITMSRELGQGSFGMVYEGVAKGVVKDEPETRVAIKTVNEAASMRERIEFLNEASVMKEFNCHHVVRLLGVVSQGQPTLVIMELMTRGDLKSYLRSLRPEMENNPVLAPPSLSKMIQMAGEIADGMAYLNANKFVHRDLAARNCMVAEDFTVKIGDFGMTRDIYETDYYRKGGKGLLPVRWMSPESLKDGVFTTYSDVWSFGVVLWEIATLAEQPYQGLSNEQVLRFVMEGGLLDKPDNCPDMLFELMRMCWQYNPKMRPSFLEIISSIKEEMEPGFREVSFYYSEENKLPEPEELDLEPENMESVPLDPSASSSSLPLPDRHSGHKAENGPGPGVLVLRASFDERQPYAHMNGGRKNERALPLPQSSTC | Strong |
| INSRR (protein) YGKKRNRTLYASVNPEYFSASDMYVPDEWEVPREQISIIRELGQGSFGMVYEGLARGLEAGEESTPVALKTVNELASPRECIEFLKEASVMKAFKCHHVVRLLGVVSQGQPTLVIMELMTRGDLKSHLRSLRPEAENNPGLPQPALGEMIQMAGEIADGMAYLAANKFVHRDLAARNCMVSQDFTVKIGDFGMTRDVYETDYYRKGGKGLLPVRWMAPESLKDGIFTTHSDVWSFGVVLWEIVTLAEQPYQGLSNEQVLKFVMDGGVLEELEGCPLQLQELMSRCWQPNPRLRPSFTHILDSIQEELRPSFRLLSFYYSPECRGARGSLPTTDAEPDSSPTPRDCSPQNGGPGH | Negative |
| KIT (protein) TYKYLQKPMYEVQWKVVEEINGNNYVYIDPTQLPYDHKWEFPRNRLSFGKTLGAGAFGKVVEATAYGLIKSDAAMTVAVKMLKPSAHLTEREALMSELKVLSYLGNHMNIVNLLGACTIGGPTLVITEYCCYGDLLNFLRRKRDSFICSKQEDHAEAALYKNLLHSKESSCSDSTNEYMDMKPGVSYVVPTKADKRRSVRIGSYIERDVTPAIMEDDELALDLEDLLSFSYQVAKGMAFLASKNCIHRDLAARNILLTHGRITKICDFGLARDIKNDSNYVVKGNARLPVKWMAPESIFNCVYTFESDVWSYGIFLWELFSLGSSPYPGMPVDSKFYKMIKEGFRMLSPEHAPAEMYDIMKTCWDADPLKRPTFKQIVQLIEKQISESTNHIYSNLANCSPNRQKPVVDHSVRINSVGSTASSSQPLLVHDDV | Negative |
| MERTK (protein) KRVQETKFGNAFTEEDSELVVNYIAKKSFCRRAIELTLHSLGVSEELQNKLEDVVIDRNLLILGKILGEGEFGSVMEGNLKQEDGTSLKVAVKTMKLDNSSQREIEEFLSEAACMKDFSHPNVIRLLGVCIEMSSQGIPKPMVILPFMKYGDLHTYLLYSRLETGPKHIPLQTLLKFMVDIALGMEYLSNRNFLHRDLAARNCMLRDDMTVCVADFGLSKKIYSGDYYRQGRIAKMPVKWIAIESLADRVYTSKSDVWAFGVTMWEIATRGMTPYPGVQNHEMYDYLLHGHRLKQPEDCLDELYEIMYSCWRTDPLDRPTFSVLRLQLEKLLESLPDVRNQADVIYVNTQLLESSEGLAQGSTLAPLDLNIDPDSIIASCTPRAAISVVTAEVHDSKPHEGRYILNGGSEEWEDLTSAPSAAVTAEKNSVLPGERLVRNGVSWSHSSMLPLGSSLPDELLFADDSSEGSEVLM | Strong |
| MET (protein) KKRKQIKDLGSELVRYDARVHTPHLDRLVSARSVSPTTEMVSNESVDYRATFPEDQFPNSSQNGSCRQVQYPLTDMSPILTSGDSDISSPLLQNTVHIDLSALNPELVQAVQHVVIGPSSLIVHFNEVIGRGHFGCVYHGTLLDNDGKKIHCAVKSLNRITDIGEVSQFLTEGIIMKDFSHPNVLSLLGICLRSEGSPLVVLPYMKHGDLRNFIRNETHNPTVKDLIGFGLQVAKGMKYLASKKFVHRDLAARNCMLDEKFTVKVADFGLARDMYDKEYYSVHNKTGAKLPVKWMALESLQTQKFTTKSDVWSFGVLLWELMTRGAPPYPDVNTFDITVYLLQGRRLLQPEYCPDPLYEVMLKCWHPKAEMRPSFSELVSRISAIFSTFIGEHYVHVNATYVNVKCVAPYPSLLSSEDNADDEVDTRPASFWETS | Strong |
